Measured values published in patent publication US8796201B2 (The Board of Trustees of the Leland Stanford Junior …, priority 2002, dated 2014).

B1: PEP: prolyl endopeptidase; Examples 1-2: from Flavobacterium meningosepticum (US Biological); Example 11: source not stated (protein, UniProt P27028 21-705, looked up)
Prolyl endopeptidase: QNSNVLKYPETKKVSHTDTYFGTQVSDPYRWLEDDRAEDTKAWVQQEVKFTQDYLAQIPFRDQLKKQLMDIWNYEKISAPFKKGKYTYFSKNDGLQAQSVLYRKDAAGKTEVFLDPNKFSEKGTTSLASVSFNKKGTLVAYSISEGGSDWNKIIILDAETKKQLDETLLDVKFSGISWLGDEGFFYSSYDKPKEGSVLSGMTDKHKVYFHKLGTKQSQDELIIGGDKFPRRYIGAYVTDDQRYLVVSAANATNGNELYIKDLKNKTDFIPIITGFDSNVNVADTDGDTLYLFTDKDAPNKRLVKTTIQNPKAETWKDVIAETSEPLEINTGGGYFFATYMKDAIDQVKQYDKNGKLVRAIKLPGSGNASGFGGEKTEKDLYYSFTNYITPPTIFKYNVTTGNSEVYQKPKVKFNPENYVSEQVFYTSSDGTKIPMMISYKKGLKKDGKNPTILYSYGGFNISLQPAFSVVNAIWMENGGIYAVPNIRGGGEYGKKWHDAGTKMQKKNVFNDFIAAGEYLQKNGYTSKEYMALSGRSNGGLLVGATMTMRPDLAKVAFPGVGVLDMLRYNKFTAGAGWAYDYGTAEDSKEMFEYLKSYSPVHNVKAGTCYPSTMVITSDHDDRVVPAHSFKFGSELQAKQSCKNPILIRIETNAGHGAGRSTEQVVAENADLLSFALYEMGIKSLK
B2: FM PEP: recombinant prolyl endopeptidase from Flavobacterium meningosepticum (Genbank D10980) (protein)
chain: B1 Prolyl endopeptidase

Assays:
[1] = Double-blind crossover gluten challenge: 72-hour quantitative fecal fat test; type: in vivo, human (Celiac Sprue patients)
Text: It was first established that a low-dose, short-term (5-10 g/day for 14 days) gluten oral supplement induces fat and carbohydrate malabsorption when given to asymptomatic Celiac Sprue patients on an otherwise gluten free diet. This protocol was modified to examine the effect of gluten pre-treated with pepsin, trypsin and chymotrypsin (PTC-Gluten) as compared to PTC-Gluten additionally treated with PEP (PTC-Gluten+PEP). In this study, Celiac patients maintaining a gluten-free diet ingested a supplement of 5 g/day gluten as PTC-Gluten or PTC-Gluten+PEP in an orange-lemon juice vehicle for 14 days in a double-blind crossover manner. A 6-week washout interval between individual arms of the crossover trial allowed patients to recover completely from the effects, if any, of the test material in the first arm.
Subjects and protocols: This study was approved by the Institutional Review Board of the Palo Alto Medical Foundation in Palo Alto, Calif., and all participants in the study were counseled regarding risks and signed an informed consent document. 22 patients were recruited who were in symptomatic remission on a gluten-free diet. Two patients dropped out of the study, one near the end of the first stage and the other prior to the second stage. The 20 patients who completed the study included 7 men and […] aged 21 to 78 (mean age 49). The time since diagnosis for the 20 patients ranged from 3 months to 18 years (mean 6 years). Patients provided copies of their initial small-intestinal biopsy pathology report and laboratory reports documenting a history of at least one positive celiac antibody (gliadin, endomysial or transglutaminase) to verify a diagnosis of Celiac Sprue. They also completed an entry questionnaire inquiring about their medical history, adherence to the gluten-free diet, and current symptoms. The format of the study was a double-blinded crossover in which each patient consumed either a low daily dose of a gluten supplement (5 g; equivalent of one-half slice of bread) that was predigested with pepsin, trypsin and chymotrypsin alone (PTC-Gluten) or PTC-Gluten treated with prolyl endopeptidase (PTC-Gluten+PEP). The PEP in the latter orange juice mixture was completely inactivated through a heating process following proteolysis of the gliadin peptides. […]
Studied variables: During each stage of the study, patients completed a daily questionnaire inquiring about symptoms and their adherence to the gluten-free diet. […] The serum anti-gliadin IgA antibodies and anti-tissue transglutaminase IgA and IgG antibodies were measured by an enzyme linked immunosorbent assay (ELISA) kit (INOVA Diagnostics, Inc., San Diego, Calif.). […] Total serum IgA levels were determined by an Integra instrument (Roche) (normal <81 mg/dl). […]

[2] = tested on: PQPQLPYPQPQLP; test: Acceleration of brush border mediated digestion by exogenous endoproteases; type: biochemical, wheat
Protocol: FIG. 3. Dose dependent acceleration of brush border mediated digestion by exogenous endoproteases. […] This peptide was digested with 27 ng/μl brush border membranes, either alone, with increasing amounts of exogenous prolyl endopeptidase (PEP, specific activity 28 μU/pg) from Flavobacterium meningosepticum (US Biological, MA), or with additional elastase (E-1250, Sigma, Mo.), bromelain (B-5144, Sigma, Mo.) or papain (P-5306, Sigma, Mo.) (12). After one hour, the fraction of remaining (SEQ ID NO:4) […] (compared to the initial amount at t=0 min) was analyzed and quantified as in FIG. 1.
Alerted by the high proline content as a hallmark of most immunogenic gliadin peptides, a proline-specific endopeptidase was tested for the generation of new, free peptide termini. A literature search on available proteases led to the identification of prolyl endopeptidase (PEP) from Flavobacterium meningosepticum, which is specific for the C-terminal cleavage of prolines and readily available from recombinant sources (Yoshimoto et al. (1991) J. Biochem. 110, 873-8). The stable (SEQ ID NO:4) […] intermediate was digested with BBM in the presence of exogenous PEP. […] As little as 3.5 pg PEP/27 ng BBM protein was sufficient to double the extent of proteolysis of this gliadin fragment compared to incubation with BBM alone. In comparison, other commonly used proteases like papain, bromelain or porcine elastase were much less efficient, requiring 30-fold (papain) or 3000-fold (bromelain, elastase) higher amounts of enzyme compared to PEP to give similar results. Their proteolysis was restricted to the cleavage of the Gln^4-Leu^5 and/or Gln^11-Leu^12 bonds.
A similar preferential cleavage was found for (SEQ ID NO:1) QLQPFP^↓QPQLPY. This is in agreement with the preference of this prolyl endopeptidase for a second proline in the S2′ position (Bordusa and Jakubke (1998) Bioorg. Med. Chem. 6, 1775-80). Based on this P^↓XP motif and on the present data, up to 16 new, major cleavage sites can be predicted in the α2-gliadin sequence, a major source of immunodominant epitopes identified thus far upon PEP treatment. All of them are located in the critical N-terminal part. The internal cleavage by PEP can be expected to generate additional (otherwise inaccessible) substrates for DPP IV and DCP thereby complementing the natural assimilation process of gliadins by the BBM. Thus, the specificity of prolyl endopeptidase is ideally suited for detoxification of persistent immunoactive gliadin peptides in Celiac Sprue.

[3] = Allergenicity of the denatured protein; set-up: species or system rodents, rabbits and humans; settings: in vivo
[4] = All patients with full Fecal Fat data (N = 17)
[5] = Subgroup with normal to Mild Steatorrhea (N = 8)

| Molecule | PEP Effective (patients / patients with positive gluten challenge), fecal fat [1, 4] | PEP Effective, fecal fat [1, 4] [%] | PEP Effective (patients / patients with positive gluten challenge), fecal fat [1, 5] | PEP Effective, fecal fat [1, 5] [%] | preferred cleavage bond in PQPQLPYPQPQLP [2] | amount sufficient to double the extent of proteolysis of PQPQLPYPQPQLP compared to BBM alone ([2]; 27 ng/μl BBM, one hour) [pg PEP/27 ng BBM protein] | allergenicity of the denatured protein [3] |
| --- | --- | --- | --- | --- | --- | --- | --- |
| B1 | 5/7 | 71 | 4/4 | 100 | Pro^8-Gln^9 and to a lesser extent the Pro^6-Tyr^7 bond | 3.5 |  |
| B2 |  |  |  |  |  |  | non-allergenic in rodents, rabbits and humans |
